Measurements from US20060019871A1, “Endothelial cell apoptosis induced by fibrinogen gamma chain C-terminal fragment” (The Regents of the University of California, priority 2004, published 2006).
Like-named read-outs stand apart in the source and are kept apart here.

What was measured:
[1] = tested on: γC-399tr-induced apoptosis; assay: Blocking of γC-399tr-induced apoptosis by MAPK inhibitors (FIG. 6); format: cell-based
Experimental: 10 μM of inhibitor is the saturating concentration.
It was further observed that endothelial cell apoptosis induced by γC-399tr can be blocked by p38 MAP kinase inhibitor SB-203580 but not inhibitors of some other MAP kinases.

BAE cells [2] = assay: Annexin V / propidium iodide binding, flow cytometry, apoptosis of BAE cells (FIG. 3); format: cell-based, bovine
Experimental: FIGS. 3A and 3B. […] BAE cells were treated with 10 μg/ml recombinant soluble γC or native fibrinogen for the indicated time. The binding of annexin V or propidium iodide (PI) to the treated BAE cells was measured in flow cytometry (FIG. 3A).

[3] = tested on: calf pulmonary artery endothelial (CPAE) cells; assay: CPAE proliferation / apoptosis, MTS and Phosphate assay (FIG. 5); format: cell-based
Experimental: FIG. 5. Inhibition of CPAE Proliferation induced by fibrinogen γC and γC-399tr. CPAE proliferation was measured by using a MTS and Phosphate assay. 10% serum-induced proliferation was inhibited by γC in a concentration-dependent fasion 48 hours passed after 1×10^5/ml. The γC-399tr is approximately 3 times more efficient in inducing apoptosis of CPAE cells.
A deletion mutant of γC that has 12 amino acids truncated from the C-terminal of γC, termed γC-399tr (having the amino acid sequence of 1-249 of SEQ ID NO:3), was recombinantly produced and purified.

BAE cells [4] = assay: MTS (CellTiter96) proliferation assay, BAE cells (FIG. 2); format: cell-based, bovine
Experimental: (§1) FIG. 2. […] The numbers of proliferating cells were determined using a tetrazolium compound MTS (CellTiter96® assay).

MAP kinases Erk1 and 2 = assay: Activation of MAP kinases Erk1 and 2, western blotting in β3-CHO cells (FIG. 4); format: cell-based, Chinese hamster; settings: soluble γC in the medium, 30 min
Experimental: FIG. 4. Fibrinogen γC-induced activation of MAP kinases Erk1 and 2. CHO cells expressing recombinant αvβ3 (β3-CHO cells) were incubated with soluble γC at indicated concentrations for 30 min and the levels of MAP kinases (Erk1 and 2) were determined by western blotting with anti-phosphorylated Erk 1 and 2.
It remains a possibility that γC acts as an antagonist and blocks signaling from other integrin ligands by competing for binding to integrins.

[5] = tested on: Bovine Arterial Endothelial (BAE) cell; assay: Growth arrest of BAE cells in culture (FIG. 1); format: cell-based
Experimental: FIG. 1. Fibrinogen γC-induced growth arrest of Bovine Arterial Endothelial (BAE) cell. […] Fragment D required much higher concentrations (100 μg/ml) to induce detectable apoptotic effects.

CHO cells = assay: MTS (CellTiter96) proliferation assay, CHO cells (FIG. 2); format: cell-based, Chinese hamster
Experimental: as §1

caspase-3 and caspase-7 = assay: Activation of caspases by γC in CPAE cells; format: cell-based, calf; settings: protein expression and enzymatic activity
β3-CHO cells = assay: MTS (CellTiter96) proliferation assay, β3-CHO cells (FIG. 2); format: cell-based, Chinese hamster
Experimental: as §1

[6] = tested on: DLD-1 human colon adenocarcinoma cells; assay: Tumor growth of DLD-1 xenograft in SCID mice; format: in vivo; settings: injections of recombinant γC-399tr in PBS
Experimental: Human breast adenocarcinoma BT20 cells are subcutaneously injected into 7-9-week-old male non-obese diabetes/severe combined immunodeficiency (NOD/SCID) mice. The animals are divided into 4 groups, each having 5 animals. Each animal receives 2×10^6 cells in the injection. The treatment groups, Groups 1-3, are injected daily intraperitoneally with recombinant γC. The control group, Group 4, receives injections of equal volumes of PBS each day. The dimensions of the tumors are measured and the tumor volumes are calculated. After two weeks of treatment, the animals are sacrificed and the tumors are excised, sectioned, and evaluated histologically. To examine the tumor vasculatures, the tumor sections are stained by CD31 anti-mouse monoclonal antibody (PharMingen, San Diego, Calif.). Tumor size and the extent of tumor vasculature are compared among all treatment and control groups.
Following the general procedure described in Example 2, DLD-1 human colon adenocarcinoma cells were injected into SCID mice. Subsequently, the treatment groups of mice received injections of recombinant γC-399tr in PBS, whereas the control group received PBS injections.

`C[S+]([O-])c1ccc(-c2nc(-c3ccncc3)c(-c3ccc(F)cc3)[nH]2)cc1` (stereo not drawn) [SB-203580] was tested, and the “saturating concentration of inhibitor for blocking γC-399tr-induced apoptosis” value [1] was 10 µM and the “blocking of γC-399tr-induced apoptosis” value ([1]; endothelial cell) was “blocks”.

B1: γC: Fibrinogen γ-chain C-terminal domain, 30 Kd, about 250 amino acid residues, sequence as set forth in SEQ ID NO:3 (protein, listed as Homo sapiens)
chain: KDCQDIANKGAKQSGLYFIKPLKANQQFLVYCEIDGSGNGWTVFQKRLDGSVDFKKNWIQYKEGFGHLSPTGTTEFWLGNEKIHLISTQSAIPYALRVELEDWNGRTSTADYAMFKVGPEADKYRLTYAYFAGGDAGDAFDGFDFGDDPSDKFFTSHNGMQFSTWDNDNDKFEGNCAEQDGSGWWMNKCHAGHLNGVYYQGGTYSKASTPNGYDNGIIWATWKTRWYSMKKTTMKIIPFNRLTIGEGQQHHLGGAKQAGDV
modifications: C-terminal region of fibrinogen gamma chain, isoform gamma-A, residues 177-437
For B1, the “induction of apoptosis of BAE cells” value (BAE cells [2]; 10 μg/ml, annexin V / PI binding) was “induced apoptosis”, the “time at which apoptosis of BAE cells was detectable” value (BAE cells [2]; 10 μg/ml, annexin V / PI flow cytometry) was 2 to 4 h and the “time in which apoptosis of BAE cells was induced” value (BAE cells [2]; annexin V binding assays) was 2 to 4 h. The “apoptosis in CPAE cells” value [3] was “induced apoptosis”, the “10% serum-induced CPAE proliferation” value ([3]; 48 hours, 1×10^5/ml) was “inhibited” and the “level of γC effectively blocking proliferation of BAE cells” value (BAE cells [4]) was “below 1 μg/ml”. For the same molecule, the “proliferation of BAE cells in the MTS assay” value (BAE cells [4]) was “blocked proliferation”, the “concentration inducing MAP kinase activation” value (MAP kinases Erk1 and 2) was “less than 1 μg/ml” and the “proliferation of BAE cells” value ([5]; 12.5 μg/ml each in culture media, 1×10^4 cells per well, 48 hours) was “blocked proliferation”. The “concentration blocking proliferation of BAE cells” value ([5]; FIG. 1 as cited) was “less than 1 μg/ml”, the “effect on proliferation of CHO cells” value (CHO cells) was “little or no effect” and the “effect on proliferation of CHO cells” value (CHO cells; listed as γC domain) was “not”. For the same molecule, the “activation of caspase-3 and caspase-7” value (caspase-3 and caspase-7) was “activation of caspase-3 and caspase-7”, the “effect on proliferation of β3-CHO cells” value (β3-CHO cells) was “little or no effect” and the “effect on proliferation of β3-CHO cells” value (β3-CHO cells; listed as γC domain) was “not”.

B2: γC-399tr: Deletion mutant of γC with 12 amino acids truncated from the C-terminal; amino acid sequence 1-249 of SEQ ID NO:3 (protein, listed as Homo sapiens)
chain: KDCQDIANKGAKQSGLYFIKPLKANQQFLVYCEIDGSGNGWTVFQKRLDGSVDFKKNWIQYKEGFGHLSPTGTTEFWLGNEKIHLISTQSAIPYALRVELEDWNGRTSTADYAMFKVGPEADKYRLTYAYFAGGDAGDAFDGFDFGDDPSDKFFTSHNGMQFSTWDNDNDKFEGNCAEQDGSGWWMNKCHAGHLNGVYYQGGTYSKASTPNGYDNGIIWATWKTRWYSMKKTTMKIIPFNRLTIGEGQQ
modifications: C-terminal region of fibrinogen gamma chain, isoform gamma-A, residues 177-437
B2 was tested, and the “tumor size versus PBS control group” value [6] was “reduced tumor size”.
